Assay results: patent US20230151091A1 (NEW YORK UNIVERSITY, published 2023)

T1: human MuSK (human, UniProt O15146 24-495)
T1 construct: Recombinant protein coated on ELISA plates (R&D Systems cat. 10189-MK) or on the Biacore chip; also called human muscle-specific tyrosine protein kinase; full length human MuSK
T1 sequence: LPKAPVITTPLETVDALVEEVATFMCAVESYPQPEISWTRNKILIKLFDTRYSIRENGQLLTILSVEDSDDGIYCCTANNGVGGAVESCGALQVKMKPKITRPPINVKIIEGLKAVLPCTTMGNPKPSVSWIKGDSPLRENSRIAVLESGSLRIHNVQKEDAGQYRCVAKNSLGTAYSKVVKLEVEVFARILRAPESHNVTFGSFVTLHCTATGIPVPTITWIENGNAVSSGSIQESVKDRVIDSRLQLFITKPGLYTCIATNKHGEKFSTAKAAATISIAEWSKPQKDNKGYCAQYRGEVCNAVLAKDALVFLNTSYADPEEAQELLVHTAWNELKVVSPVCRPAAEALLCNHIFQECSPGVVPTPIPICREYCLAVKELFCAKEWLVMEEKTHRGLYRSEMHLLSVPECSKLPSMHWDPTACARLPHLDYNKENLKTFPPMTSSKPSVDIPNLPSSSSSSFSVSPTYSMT

T2: mouse MuSK (mouse, UniProt Q61006 22-494, limits assumed)
T2 construct: Coated on ELISA plates or on the Biacore chip; also called full length mouse MuSK; mouse MuSK (in house produced in HEK293 cells)
T2 sequence (looked up): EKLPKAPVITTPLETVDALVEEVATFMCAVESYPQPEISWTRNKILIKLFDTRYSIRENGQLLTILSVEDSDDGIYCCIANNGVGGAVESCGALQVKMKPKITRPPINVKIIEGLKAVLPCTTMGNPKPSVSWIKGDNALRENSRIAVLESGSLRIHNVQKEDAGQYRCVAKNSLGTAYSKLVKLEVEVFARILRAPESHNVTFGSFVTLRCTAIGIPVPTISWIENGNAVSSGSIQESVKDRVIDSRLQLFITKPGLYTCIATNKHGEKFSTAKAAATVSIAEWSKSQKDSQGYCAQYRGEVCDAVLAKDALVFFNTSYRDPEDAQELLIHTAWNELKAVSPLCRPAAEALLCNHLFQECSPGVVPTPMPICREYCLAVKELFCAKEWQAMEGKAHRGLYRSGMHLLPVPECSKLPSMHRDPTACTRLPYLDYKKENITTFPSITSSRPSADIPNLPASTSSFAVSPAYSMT

T3: mFz: Fz domain and C-terminal flanking sequence of mouse MuSK (D307 to T494) with C-terminal Avi- and … (mouse, UniProt Q61006 307-494, limits assumed, biotinylated in vitro using the BirA enzyme)
T3 construct: also called mouse Fz; not shown: Avi- and His6-tags
T3 sequence (looked up): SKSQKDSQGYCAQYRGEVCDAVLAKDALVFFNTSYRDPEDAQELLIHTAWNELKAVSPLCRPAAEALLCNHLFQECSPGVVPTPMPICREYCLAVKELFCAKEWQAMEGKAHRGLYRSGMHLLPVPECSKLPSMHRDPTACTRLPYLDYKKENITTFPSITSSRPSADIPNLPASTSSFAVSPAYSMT

T4: hECD: full-length extracellular region of human MuSK (E22 to T495) with C-terminal Avi- and His6-tags (human, UniProt O15146 22-495, biotinylated in vitro using the BirA enzyme)
T4 construct: also called human ECD; not shown: Avi- and His6-tags
T4 sequence: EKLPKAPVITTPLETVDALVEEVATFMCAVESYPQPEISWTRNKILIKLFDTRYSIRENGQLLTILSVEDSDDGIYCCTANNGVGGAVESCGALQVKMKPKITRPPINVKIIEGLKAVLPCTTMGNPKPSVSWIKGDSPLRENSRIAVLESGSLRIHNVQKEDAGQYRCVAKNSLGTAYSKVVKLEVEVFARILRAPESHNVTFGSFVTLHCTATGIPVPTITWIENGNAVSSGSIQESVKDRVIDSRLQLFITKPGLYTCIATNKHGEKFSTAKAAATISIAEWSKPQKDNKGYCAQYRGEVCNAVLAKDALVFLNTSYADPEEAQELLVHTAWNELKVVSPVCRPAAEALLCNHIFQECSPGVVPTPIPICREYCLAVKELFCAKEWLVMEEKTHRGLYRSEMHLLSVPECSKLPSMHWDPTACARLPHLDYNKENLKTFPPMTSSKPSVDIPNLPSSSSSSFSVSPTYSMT

T5: mECD: full-length extracellular region of mouse MuSK (E22 to T494) with C-terminal Avi- and His6-tags (mouse, UniProt Q61006 22-494, biotinylated in vitro using the BirA enzyme)
T5 construct: range 22-494; also called mouse ECD; not shown: Avi- and His6-tags
T5 sequence (looked up): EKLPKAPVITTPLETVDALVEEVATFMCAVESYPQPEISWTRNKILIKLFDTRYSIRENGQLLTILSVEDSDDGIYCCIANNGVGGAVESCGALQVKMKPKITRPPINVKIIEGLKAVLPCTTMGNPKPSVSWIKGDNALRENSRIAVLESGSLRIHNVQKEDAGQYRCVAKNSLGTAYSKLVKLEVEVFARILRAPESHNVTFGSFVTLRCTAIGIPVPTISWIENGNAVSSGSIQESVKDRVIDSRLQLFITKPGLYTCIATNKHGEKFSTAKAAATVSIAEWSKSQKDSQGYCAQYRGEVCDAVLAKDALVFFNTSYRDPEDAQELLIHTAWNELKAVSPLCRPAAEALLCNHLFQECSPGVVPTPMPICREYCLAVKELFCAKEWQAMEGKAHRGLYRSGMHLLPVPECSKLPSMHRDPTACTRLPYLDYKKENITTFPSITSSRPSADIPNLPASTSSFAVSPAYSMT


Tests used:
[1] = molecular target: T1, human MuSK; test: Biacore T200, MuSK on chip (200RU), 22.2 nM Fab, dissociation pH 5.5
Summary of the method: (§1)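 Surface plasmon resonance was run with both human and mouse MuSK immobilized on the sensor chip. Fab association was always performed at pH 7.4 before the dissociation phase. Kinetic parameters were calculated from the binding curves.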

[2] = molecular target: T2, mouse MuSK; test: as above
Summary of the method: as §1

[3] = molecular target: T1, human MuSK; test: Biacore T200, MuSK on chip (200RU), 22.2 nM Fab, dissociation pH 7.4
Summary of the method: as §1

[4] = molecular target: T2, mouse MuSK; test: as above
Summary of the method: as §1

[5] = molecular target: T3, mFz: Fz domain and C-terminal flanking …; test: bead-binding titration, Fab format: antigen immobilized on streptavidin beads, MFI by flow cytometry, curve is the 1:1 fit
[6] = molecular target: T4, hECD: full-length extracellular region …; test: as above
[7] = molecular target: T5, mECD: full-length extracellular region …; test: as above

Binder | koff [1] | koff [2] | koff [3] | koff [4] | EC50 (read off the curve) [5] | EC50 (read off the curve) [6] | EC50 (read off the curve) [7]
X2 Fab (Fab, V domains shown, Fab format) VH: EVQLVESGGGLVQPGGSLRLSCAASGFTVSSSSIHWVRQAPGKGLEWVASISSSYGSTSYADSVKGRFTISADTSKNTAYLQMNSLRAEDTAVYYCARSEGDRYVSGYMGMDYWGQGTLVTVSS VL: DIQMTQSPSSLSASVGDRVTITCRASQSVSSAVAWYQQKPGKAPKLLIYSASSLYSGVPSRFSGSRSGTDFTLTISSLQPEDFATYYCQQSGVWLITFGQGTKVEIK | 0.00034 s⁻¹ | 0.00051 s⁻¹ | 0.00057 s⁻¹ | 0.00053 s⁻¹ | ~0.5 nM | ~0.9 nM | ~0.6 nM
X3 Fab (Fab, V domains shown, Fab format) VH: EVQLVESGGGLVQPGGSLRLSCAASGFTISSSSIHWVRQAPGKGLEWVASISSSSGYTYYADSVKGRFTISADTSKNTAYLQMNSLRAEDTAVYYCARSWYEMWMSGYFGFDYWGQGTLVTVSS VL: DIQMTQSPSSLSASVGDRVTITCRASQSVSSAVAWYQQKPGKAPKLLIYSASSLYSGVPSRFSGSRSGTDFTLTISSLQPEDFATYYCQQSSSSLITFGQGTKVEIK | 0.00225 s⁻¹ | 0.0246 s⁻¹ | 0.00063 s⁻¹ | 0.00558 s⁻¹ | ~0.3 nM | ~0.2 nM | ~0.4 nM
